Data: the supplement of paper PMC10567573

B1: SETD8 (parent)
chain: FVVEYHGDLIEITDAKKREALYAQ
B2: GLTSCR2 (parent)
chain: LARRRRRRQARREAEADKPRRLGR

Variants of: B1
Assay: protein stability index of a GFP-peptide fusion (GPS, HEK-293T) (PSI 1-6); higher = more stable
Details: c terminus: a fixed tail appended
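Further: lentivirally expressed fusions sorted by FACS into six bins by GFP to DsRed ratio, PSI derived from sequencing read proportions per bin multiplied by bin number.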

Variant | protein stability index
Y22N | 3.26
Y22W | 1.56
Y22T | 1.76
Y22K | 2.88
Y22Q | 2.06
Y22I | 1.94
Y22F | 1.79
Y22V | 2.08
Y22L | 1.47
Y22E | 2.6
Y22M | 2.95
Y22C | 2.13
Y22G | 1.43
Y22H | 1.84
Y22R | 1.99
Y22S | 1.68
Y22D | 2.21
Y22P | 2.29
A20Y | 1.71
A20T | 2.06
A20W | 1.47

Variant | protein stability index
A20P | 1.08
A20S | 2.3
A20Q | 1.78
A20V | 1.97
A20R | 1.68
A20N | 1.7
A23T | 2.21
A23I | 1.6
A23N | 1.69
A23Q | 1.85
A23F | 2.57
A23M | 1.83
A23W | 2.12
A23R | 2.3
A23S | 1.92
A23G | 1.13
A23P | 1.89
A23H | 2.1
A23V | 1.65
A23E | 1.84
A23Y | 1.3

Variant | protein stability index
A23L | 2.36
A23K | 2.17
A23D | 1.79
A23C | 1.29
Q24C | 1.35
Q24N | 1.71
Q24H | 1.64
Q24S | 1.6
Q24R | 2.89
Q24P | 2.05
Q24A | 2.5
Q24D | 1.77
Q24T | 2.09
Q24W | 1.63
Q24G | 1.37
Q24I | 1.75
Q24M | 1.75
Q24F | 1.5
Q24E | 1.86
Q24K | 1.86
Q24Y | 1.32

Variant | protein stability index
Q24L | 1.51
Q24V | 1.85
L21R | 1.39
L21Q | 2.21
L21T | 1.94
L21M | 1.7
L21I | 1.36
L21E | 2.88
L21Y | 1.97
L21N | 1.81
L21A | 2.01
L21F | 1.73
L21P | 3.09
L21G | 2.05
L21C | 1.82
L21H | 2.79
L21S | 2.36
L21V | 1.91
L21W | 2.22
L21D | 2.52
L21K | 2.38

Variants of: B2
Assay: as above
Details: c terminus: a fixed tail appended

Variant | protein stability index
A14N | 4.44
A14D | 4.49
A14Y | 4.6
A14K | 4.61
A14V | 4.58
A14T | 4.97
A14R | 4.52
A14S | 4.7
A14W | 4.45
A14M | 4.34
A14P | 4.97
R12C | 4.31
R12A | 4.71
R12F | 4.17
R12E | 4.29
R12I | 4.72
R12N | 4.11
R12Y | 4.51
R12W | 4.34
R12L | 3.76
R12T | 4.98
R12M | 4.87
R12D | 4.73
R12P | 4.6
R12G | 4.45

Variant | protein stability index
R12V | 5.34
R12K | 4.55
P19C | 4.29
P19E | 4.64
P19N | 4.58
P19R | 4.54
P19Y | 4.26
P19H | 4.09
P19I | 3.81
P19A | 3.92
P19S | 4.16
P19G | 4.57
P19V | 4.08
P19D | 4.91
R11L | 5.4
R11V | 4.91
R11H | 4.74
R11T | 5.06
R11Q | 4.26
R11N | 3.94
R11F | 4.09
R11I | 4.8
R11K | 4.52
R11C | 4.64
R11W | 4.53

Variant | protein stability index
R11Y | 4.95
R21Y | 4.94
R21Q | 5.13
R21N | 4.73
R21F | 4.58
R21P | 3.66
R21W | 3.64
R21K | 4.44
G23D | 4.9
G23K | 3.76
G23C | 4.57
G23S | 5.18
G23M | 4.17
G23P | 4.77
G23E | 4.68
G23Y | 4.44
G23I | 4.53
G23Q | 4.51
G23L | 4.18
G23V | 4.45
A10S | 4.66
A10F | 4.47
A10R | 4.95
A10W | 4.73
A10G | 4.25

Variant | protein stability index
A10P | 5.19
A10M | 5.21
A10H | 5.1
A2C | 4.49
A2S | 4.83
A2F | 3.4
A2E | 4.71
A2R | 5.33
A2H | 4.76
A2D | 4.41
A2K | 4.42
A2V | 3.51
A2N | 4.9
A2G | 4.78
R5M | 4.36
R5G | 4.36
R5P | 5.1
R5H | 4.18
R5T | 4.15
R5A | 4.69
R5Q | 4.33
R5K | 4.54
R5C | 4.21
R5W | 4.12
R5E | 5.13

Variant | protein stability index
R4T | 4.67
R4F | 3.75
R4L | 4.59
R4K | 3.13
R4Y | 4.16
R4I | 4.46
R4E | 5.25
R4C | 4.34
R4V | 3.97
R4A | 4.39
A16P | 4.61
A16L | 3.29
A16Q | 4.89
A16C | 4.48
A16H | 5.25
A16M | 4.97
A16E | 4.8
A16D | 4.82
A16G | 4.09
A16Y | 4.61
R6T | 4.69
R6N | 5.07
R6C | 4.5
R6W | 4.74
R6I | 3.98

Variant | protein stability index
R6A | 5.21
R6K | 4.79
R6V | 3.6
E15W | 3.87
E15Y | 4.21
E15C | 4.68
E15M | 4.72
E15A | 4.78
E15D | 4.55
E15N | 5.4
E15K | 3.6
E15S | 4.12
E15T | 4.22
E15F | 4.36
E15I | 4.63
E15V | 4.64
K18M | 5.14
K18P | 5.41
K18F | 5.1
K18S | 4.74
K18A | 4.89
K18E | 5.03
K18I | 4.34
K18W | 3.88
K18Y | 4.85

Variant | protein stability index
K18R | 5.02
K18G | 4.91
K18D | 4.78
K18H | 4.98
L1E | 5.22
L1S | 5.66
L1K | 4.56
L1Y | 4.28
L1W | 4.58
L1I | 4.9
L1R | 5.14
L1T | 5.33
L1A | 5.29
L1P | 5.18
L1Q | 4.51
R8V | 4.18
R8N | 4.48
R8P | 4.44
R8Y | 4.15
R8A | 4.98
R8I | 4.3
R24L | 4.58
R24I | 4.47
R24T | 4.6
R24Q | 4.62

Variant | protein stability index
R24Y | 4.8
R24N | 4.28
R24F | 4.3
R24E | 4.12
R24A | 4.72
D17A | 4.3
D17Q | 4.53
D17K | 4.99
D17H | 4.81
D17C | 4.07
D17V | 3.99
D17E | 5.31
D17R | 4.82
D17G | 4.24
D17T | 4.66
D17N | 4.32
E13A | 4.51
E13T | 4.83
E13P | 4.36
E13W | 4.51
E13M | 3.72
E13H | 4.13
E13V | 4.35
E13D | 4.61
R7E | 4.93

Variant | protein stability index
R7D | 4.88
R7M | 5.22
R7C | 4.83
R7V | 4.6
R7Y | 4.64
R7Q | 4.19
R7L | 4.76
R7S | 4.66
R7W | 4.63
R7T | 4.76
R3P | 5.54
R3H | 4.3
R3F | 4.34
R3S | 4.91
R3T | 4.84
R3Y | 3.84
R3G | 5.02
R3E | 5.08
R3V | 4.35
R3A | 5.01
R3W | 4.4
L22R | 5.04
L22Y | 4.35
L22T | 4.74
L22M | 4.74

Variant | protein stability index
L22S | 5.13
L22G | 4.3
L22E | 5.15
L22W | 4.62
L22I | 4.7
L22K | 4.71
L22F | 3.87
L22P | 4.15
Q9E | 4.38
Q9F | 4.27
Q9T | 5.12
Q9N | 4.47
Q9I | 4.75
Q9L | 4.66
Q9H | 4.73
Q9W | 3.71
R20I | 4.36
R20E | 4.52
R20L | 4.64
R20N | 4.75
R20F | 4.04
R20P | 5.45
R20K | 4.64
R20V | 4.65
R20G | 4.91
